Results reported in article doi:10.1101/2023.02.02.526913.
Read-outs that look alike come from different tables or passages of the source.

How the values were obtained:
Assay in all cases: cryo-EM structure
[1] = molecular target: microtubules prepared from porcine brain tubulin (porcine) (UniProt P02550)
[2] = molecular target: microtubules prepared from porcine brain tubulin (porcine) (UniProt P02550); remark: listed apart in the source
[3] = molecular target: microtubules prepared from porcine brain tubulin (porcine) (UniProt P02550); remark: listed apart in the source

Sequence of UniProt P02550 (P02550 whole entry, chain 1 of 2): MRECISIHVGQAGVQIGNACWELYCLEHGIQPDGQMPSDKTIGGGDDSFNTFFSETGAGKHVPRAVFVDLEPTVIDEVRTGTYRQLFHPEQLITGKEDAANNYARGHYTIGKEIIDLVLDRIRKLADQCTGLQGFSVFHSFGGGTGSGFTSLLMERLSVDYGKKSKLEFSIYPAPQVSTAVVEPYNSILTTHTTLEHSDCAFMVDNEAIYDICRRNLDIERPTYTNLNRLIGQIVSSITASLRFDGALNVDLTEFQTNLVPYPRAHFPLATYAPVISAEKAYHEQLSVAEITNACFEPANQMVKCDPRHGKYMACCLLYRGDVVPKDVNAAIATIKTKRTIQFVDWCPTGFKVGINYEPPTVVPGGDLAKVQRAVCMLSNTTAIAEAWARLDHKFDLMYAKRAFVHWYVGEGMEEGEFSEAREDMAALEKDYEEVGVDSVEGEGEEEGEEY
Sequence of UniProt P02550 (P02554 whole entry, chain 2 of 2, further chain): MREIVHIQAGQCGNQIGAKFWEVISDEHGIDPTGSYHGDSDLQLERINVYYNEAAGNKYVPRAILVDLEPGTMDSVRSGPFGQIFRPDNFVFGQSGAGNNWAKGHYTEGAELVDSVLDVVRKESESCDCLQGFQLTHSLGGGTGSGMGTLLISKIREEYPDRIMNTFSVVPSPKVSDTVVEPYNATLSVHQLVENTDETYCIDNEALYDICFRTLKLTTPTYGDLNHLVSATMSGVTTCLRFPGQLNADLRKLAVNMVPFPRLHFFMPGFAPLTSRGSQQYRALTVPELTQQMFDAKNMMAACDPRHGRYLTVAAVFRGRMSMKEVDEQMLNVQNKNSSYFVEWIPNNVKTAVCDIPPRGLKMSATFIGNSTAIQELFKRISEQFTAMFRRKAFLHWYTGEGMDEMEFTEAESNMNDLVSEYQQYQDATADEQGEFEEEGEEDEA

decorated fraction of the kinesin sites on tubulin [1]	decorated fraction of the kinesin sites on tubulin [2]	decorated fraction of the kinesin sites on tubulin [3]	Substance
9%	25%		KIF1A^P305L (KIF1A(aa1-393, P305L)-LZ-strepII) (from UniProt Q12756 1-393) (domain or fragment)
	32%	74%	KIF1A(aa1-393)-LZ-strepII (from UniProt Q12756 1-393) (domain or fragment)
